To fix the notation:
B1: Speckle-type POZ protein (Homo sapiens), O43791 (parent)
chain: MSRVPSPPPPAEMSSGPVAESWCYTQIKVVKFSYMWTINNFSFCREEMGEVIKSSTFSSGANDKLKWCLRVNPKGLDEESKDYLSLYLLLVSCPKSEVRAKFKFSILNAKGEETKAMESQRAYRFVQGKDWGFKKFIRRDFLLDEANGLLPDDKLTLFCEVSVVQDSVNISGQNTMNMVKVPECRLADELGGLWENSRFTDCCLCVAGQEFQAHKAILAARSPVFSAMFEHEMEESKKNRVEINDVEPEVFKEMMCFIYTGKAPNLDKMADDLLAAADKYALERLKVMCEDALCSNLSVENAAEILILADLHSADQLKTQAVDFINYHASDVLETSGWKSMVVSHPHLVAEAYRSLASAQCPFLGPPRKRLKQS

The variants in the first assay derive from B1. The settings on record: with za2g_human AZGP1, P25311.
Chain of za2g_human AZGP1, P25311 (P25311 whole entry): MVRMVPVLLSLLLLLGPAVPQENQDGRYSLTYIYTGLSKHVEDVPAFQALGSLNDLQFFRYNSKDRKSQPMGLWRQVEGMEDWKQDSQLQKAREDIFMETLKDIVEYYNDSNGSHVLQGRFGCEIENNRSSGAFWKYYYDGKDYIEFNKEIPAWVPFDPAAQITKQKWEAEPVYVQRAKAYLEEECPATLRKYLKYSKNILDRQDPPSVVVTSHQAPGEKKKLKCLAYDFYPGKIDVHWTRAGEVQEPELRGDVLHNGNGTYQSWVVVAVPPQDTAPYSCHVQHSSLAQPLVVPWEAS
In the case of MSRVPSPPPPAEMSSGPVAESWCYTQIKVVKFSYMWTINNFSFCREEMGEVIKSSTFSSGANDKLKWCLRVNPKGLDEESKDYLSLCLLLVSCPKSEVRAKFKFSILNAKGEETKAMESQRAYRFVQGKDWGFKKFIRRDFLLDEANGLLPDDKLTLFCEVSVVQDSVNISGQNTMNMVKVPECRLADELGGLWENSRFTDCCLCVAGQEFQAHKAILAARSPVFSAMFEHEMEESKKNRVEINDVEPEVFKEMMCFIYTGKAPNLDKMADDLLAAADKYALERLKVMCEDALCSNLSVENAAEILILADLHSADQLKTQAVDFINYHASDVLETSGWKSMVVSHPHLVAEAYRSLASAQCPFLGPPRKRLKQS [Y87C], the “effect of a mutation on the interaction” value is on record as “with no effect”.

The next assay covers variants of B1. Particulars: with b2mg_human B2M.
In the case of MSRVPSPPPPAEMSSGPVAESWCYTQIKVVKFSYMWTINNFSFCREEMGEVIKSSTFSSGANDKLKWCLRVNPKGLDEESKDYLSLCLLLVSCPKSEVRAKFKFSILNAKGEETKAMESQRAYRFVQGKDWGFKKFIRRDFLLDEANGLLPDDKLTLFCEVSVVQDSVNISGQNTMNMVKVPECRLADELGGLWENSRFTDCCLCVAGQEFQAHKAILAARSPVFSAMFEHEMEESKKNRVEINDVEPEVFKEMMCFIYTGKAPNLDKMADDLLAAADKYALERLKVMCEDALCSNLSVENAAEILILADLHSADQLKTQAVDFINYHASDVLETSGWKSMVVSHPHLVAEAYRSLASAQCPFLGPPRKRLKQS [Y87C], the “effect of a mutation on the interaction” value is recorded as “with no effect”.

In another assay the parent is B1. Particulars: with bap1_human BAP1, Q92560.
Chain of bap1_human BAP1, Q92560 (Q92560 whole entry): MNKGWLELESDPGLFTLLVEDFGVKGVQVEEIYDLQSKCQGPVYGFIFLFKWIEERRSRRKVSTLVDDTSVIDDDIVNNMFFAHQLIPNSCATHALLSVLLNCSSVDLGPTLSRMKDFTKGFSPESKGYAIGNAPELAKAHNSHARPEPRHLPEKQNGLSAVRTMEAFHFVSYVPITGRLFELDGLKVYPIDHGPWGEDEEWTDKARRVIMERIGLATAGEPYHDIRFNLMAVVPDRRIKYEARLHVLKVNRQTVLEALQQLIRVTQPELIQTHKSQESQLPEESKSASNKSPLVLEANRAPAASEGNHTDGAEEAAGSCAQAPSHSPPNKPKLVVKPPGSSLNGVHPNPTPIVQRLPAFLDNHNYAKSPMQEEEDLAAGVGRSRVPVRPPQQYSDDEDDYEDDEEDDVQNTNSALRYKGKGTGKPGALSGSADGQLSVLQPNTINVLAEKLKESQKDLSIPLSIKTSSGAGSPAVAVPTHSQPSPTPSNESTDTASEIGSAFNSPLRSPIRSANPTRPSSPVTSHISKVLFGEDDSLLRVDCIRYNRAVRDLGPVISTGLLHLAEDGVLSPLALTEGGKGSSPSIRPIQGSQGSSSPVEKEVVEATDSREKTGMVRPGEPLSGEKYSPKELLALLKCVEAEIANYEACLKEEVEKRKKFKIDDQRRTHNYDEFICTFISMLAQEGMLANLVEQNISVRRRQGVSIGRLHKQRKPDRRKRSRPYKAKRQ
For the variant MSRVPSPPPPAEMSSGPVAESWCYTQIKVVKFSYMWTINNFSFCREEMGEVIKSSTFSSGANDKLKWCLRVNPKGLDEESKDYLSLCLLLVSCPKSEVRAKFKFSILNAKGEETKAMESQRAYRFVQGKDWGFKKFIRRDFLLDEANGLLPDDKLTLFCEVSVVQDSVNISGQNTMNMVKVPECRLADELGGLWENSRFTDCCLCVAGQEFQAHKAILAARSPVFSAMFEHEMEESKKNRVEINDVEPEVFKEMMCFIYTGKAPNLDKMADDLLAAADKYALERLKVMCEDALCSNLSVENAAEILILADLHSADQLKTQAVDFINYHASDVLETSGWKSMVVSHPHLVAEAYRSLASAQCPFLGPPRKRLKQS [Y87C], the “effect of a mutation on the interaction” value was “with no effect”.

In another assay the parent is B1. The settings on record: with bcor_human BCOR.
On to MSRVPSPPPPAEMSSGPVAESWCYTQIKVVKFSYMWTINNFSFCREEMGEVIKSSTFSSGANDKLKWCLRVNPKGLDEESKDYLSLCLLLVSCPKSEVRAKFKFSILNAKGEETKAMESQRAYRFVQGKDWGFKKFIRRDFLLDEANGLLPDDKLTLFCEVSVVQDSVNISGQNTMNMVKVPECRLADELGGLWENSRFTDCCLCVAGQEFQAHKAILAARSPVFSAMFEHEMEESKKNRVEINDVEPEVFKEMMCFIYTGKAPNLDKMADDLLAAADKYALERLKVMCEDALCSNLSVENAAEILILADLHSADQLKTQAVDFINYHASDVLETSGWKSMVVSHPHLVAEAYRSLASAQCPFLGPPRKRLKQS [Y87C], for which the “effect of a mutation on the interaction” value is recorded as “with no effect”.

Another assay covers variants of B1. Particulars: with bcorl_human BCORL1, Q5H9F3.
Chain of bcorl_human BCORL1, Q5H9F3 (Q5H9F3 whole entry): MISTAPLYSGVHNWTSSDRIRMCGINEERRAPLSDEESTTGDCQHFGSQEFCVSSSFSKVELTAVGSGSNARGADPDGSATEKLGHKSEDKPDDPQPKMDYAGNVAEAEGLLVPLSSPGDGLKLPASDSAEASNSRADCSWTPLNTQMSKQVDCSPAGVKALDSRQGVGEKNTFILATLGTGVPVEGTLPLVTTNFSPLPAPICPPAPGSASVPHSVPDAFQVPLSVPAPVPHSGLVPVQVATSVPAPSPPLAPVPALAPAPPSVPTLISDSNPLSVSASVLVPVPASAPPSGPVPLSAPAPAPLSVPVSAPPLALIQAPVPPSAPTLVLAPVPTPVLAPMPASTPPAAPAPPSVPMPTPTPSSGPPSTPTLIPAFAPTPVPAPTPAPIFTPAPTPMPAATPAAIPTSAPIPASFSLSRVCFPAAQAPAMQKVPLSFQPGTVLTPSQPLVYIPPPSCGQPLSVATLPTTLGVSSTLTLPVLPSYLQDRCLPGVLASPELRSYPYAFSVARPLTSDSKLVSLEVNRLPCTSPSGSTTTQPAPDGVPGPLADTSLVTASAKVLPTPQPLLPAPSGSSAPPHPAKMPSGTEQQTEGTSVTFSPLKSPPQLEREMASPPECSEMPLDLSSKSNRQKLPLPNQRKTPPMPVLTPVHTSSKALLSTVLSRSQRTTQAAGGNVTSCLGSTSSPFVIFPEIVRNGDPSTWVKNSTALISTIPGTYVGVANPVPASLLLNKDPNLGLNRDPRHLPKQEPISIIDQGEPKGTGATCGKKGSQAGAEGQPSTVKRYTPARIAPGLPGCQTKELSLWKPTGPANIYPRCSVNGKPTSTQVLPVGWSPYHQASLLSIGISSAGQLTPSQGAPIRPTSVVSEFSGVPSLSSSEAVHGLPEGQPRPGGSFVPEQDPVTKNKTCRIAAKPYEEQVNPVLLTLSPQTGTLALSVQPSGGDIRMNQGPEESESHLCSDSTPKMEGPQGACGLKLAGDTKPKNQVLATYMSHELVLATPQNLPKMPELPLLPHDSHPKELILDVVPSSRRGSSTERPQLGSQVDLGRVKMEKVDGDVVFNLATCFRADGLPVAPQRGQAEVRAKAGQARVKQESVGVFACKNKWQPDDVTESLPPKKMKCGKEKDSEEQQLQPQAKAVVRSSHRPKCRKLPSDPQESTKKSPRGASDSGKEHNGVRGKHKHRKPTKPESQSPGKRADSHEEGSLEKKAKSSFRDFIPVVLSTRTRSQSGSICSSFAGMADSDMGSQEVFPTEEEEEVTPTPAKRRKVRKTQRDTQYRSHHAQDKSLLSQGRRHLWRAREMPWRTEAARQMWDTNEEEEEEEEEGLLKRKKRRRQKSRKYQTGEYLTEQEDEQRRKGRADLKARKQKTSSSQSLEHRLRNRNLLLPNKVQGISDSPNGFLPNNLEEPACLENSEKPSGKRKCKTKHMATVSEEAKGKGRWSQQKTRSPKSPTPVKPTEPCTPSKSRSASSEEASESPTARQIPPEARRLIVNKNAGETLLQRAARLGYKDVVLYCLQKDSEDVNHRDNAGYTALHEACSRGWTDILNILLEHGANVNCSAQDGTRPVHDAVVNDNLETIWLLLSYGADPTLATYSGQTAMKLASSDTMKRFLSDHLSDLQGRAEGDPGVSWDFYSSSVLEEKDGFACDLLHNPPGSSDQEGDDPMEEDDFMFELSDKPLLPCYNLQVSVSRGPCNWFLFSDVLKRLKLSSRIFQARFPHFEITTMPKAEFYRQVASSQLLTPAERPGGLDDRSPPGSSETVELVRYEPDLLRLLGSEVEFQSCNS
Consider MSRVPSPPPPAEMSSGPVAESWCYTQIKVVKFSYMWTINNFSFCREEMGEVIKSSTFSSGANDKLKWCLRVNPKGLDEESKDYLSLCLLLVSCPKSEVRAKFKFSILNAKGEETKAMESQRAYRFVQGKDWGFKKFIRRDFLLDEANGLLPDDKLTLFCEVSVVQDSVNISGQNTMNMVKVPECRLADELGGLWENSRFTDCCLCVAGQEFQAHKAILAARSPVFSAMFEHEMEESKKNRVEINDVEPEVFKEMMCFIYTGKAPNLDKMADDLLAAADKYALERLKVMCEDALCSNLSVENAAEILILADLHSADQLKTQAVDFINYHASDVLETSGWKSMVVSHPHLVAEAYRSLASAQCPFLGPPRKRLKQS [Y87C], for which the “effect of a mutation on the interaction” value is “with no effect”.

Another assay covers variants of B1. The settings on record: with birc2_human BIRC2, Q13490.
Chain of birc2_human BIRC2, Q13490 (Q13490 whole entry): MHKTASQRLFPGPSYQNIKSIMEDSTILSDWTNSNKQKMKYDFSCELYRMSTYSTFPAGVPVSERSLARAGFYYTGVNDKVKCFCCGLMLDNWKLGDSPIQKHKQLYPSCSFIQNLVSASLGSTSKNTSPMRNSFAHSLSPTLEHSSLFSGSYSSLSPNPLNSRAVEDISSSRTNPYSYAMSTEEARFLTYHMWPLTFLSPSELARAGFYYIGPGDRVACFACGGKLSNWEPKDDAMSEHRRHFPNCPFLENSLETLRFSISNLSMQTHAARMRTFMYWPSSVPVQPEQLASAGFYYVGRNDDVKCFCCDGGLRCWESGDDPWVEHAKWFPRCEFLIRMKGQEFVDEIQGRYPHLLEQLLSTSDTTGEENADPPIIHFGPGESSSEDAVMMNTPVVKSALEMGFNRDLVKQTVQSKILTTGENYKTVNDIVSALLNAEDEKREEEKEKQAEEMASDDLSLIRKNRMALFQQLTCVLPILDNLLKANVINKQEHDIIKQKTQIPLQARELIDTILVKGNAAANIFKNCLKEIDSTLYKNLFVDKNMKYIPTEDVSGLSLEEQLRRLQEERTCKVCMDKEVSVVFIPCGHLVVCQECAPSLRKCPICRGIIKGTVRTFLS
As to MSRVPSPPPPAEMSSGPVAESWCYTQIKVVKFSYMWTINNFSFCREEMGEVIKSSTFSSGANDKLKWCLRVNPKGLDEESKDYLSLCLLLVSCPKSEVRAKFKFSILNAKGEETKAMESQRAYRFVQGKDWGFKKFIRRDFLLDEANGLLPDDKLTLFCEVSVVQDSVNISGQNTMNMVKVPECRLADELGGLWENSRFTDCCLCVAGQEFQAHKAILAARSPVFSAMFEHEMEESKKNRVEINDVEPEVFKEMMCFIYTGKAPNLDKMADDLLAAADKYALERLKVMCEDALCSNLSVENAAEILILADLHSADQLKTQAVDFINYHASDVLETSGWKSMVVSHPHLVAEAYRSLASAQCPFLGPPRKRLKQS [Y87C], the “effect of a mutation on the interaction” value is reported as “with no effect”.

Variants of B1 are the subject of a further assay. Particulars: with brd4_human BRD4, O60885.
As for MSRVPSPPPPAEMSSGPVAESWCYTQIKVVKFSYMWTINNFSFCREEMGEVIKSSTFSSGANDKLKWCLRVNPKGLDEESKDYLSLCLLLVSCPKSEVRAKFKFSILNAKGEETKAMESQRAYRFVQGKDWGFKKFIRRDFLLDEANGLLPDDKLTLFCEVSVVQDSVNISGQNTMNMVKVPECRLADELGGLWENSRFTDCCLCVAGQEFQAHKAILAARSPVFSAMFEHEMEESKKNRVEINDVEPEVFKEMMCFIYTGKAPNLDKMADDLLAAADKYALERLKVMCEDALCSNLSVENAAEILILADLHSADQLKTQAVDFINYHASDVLETSGWKSMVVSHPHLVAEAYRSLASAQCPFLGPPRKRLKQS [Y87C], the “effect of a mutation on the interaction” value is reported as “with no effect”.

Another assay covers variants of B1. The settings on record: with baba2_human BABAM2, Q9NXR7.
Chain of baba2_human BABAM2, Q9NXR7 (Q9NXR7 whole entry): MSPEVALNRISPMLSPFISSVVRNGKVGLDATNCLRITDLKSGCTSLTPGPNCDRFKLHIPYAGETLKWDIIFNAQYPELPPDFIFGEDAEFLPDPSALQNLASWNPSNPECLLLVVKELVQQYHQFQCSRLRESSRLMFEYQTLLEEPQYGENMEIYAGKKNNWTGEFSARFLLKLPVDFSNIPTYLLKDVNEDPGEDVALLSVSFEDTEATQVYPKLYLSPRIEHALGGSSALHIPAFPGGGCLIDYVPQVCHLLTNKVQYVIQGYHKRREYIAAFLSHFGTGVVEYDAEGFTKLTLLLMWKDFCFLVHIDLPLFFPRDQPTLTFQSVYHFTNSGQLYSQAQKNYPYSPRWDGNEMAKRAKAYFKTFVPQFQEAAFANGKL
With MSRVPSPPPPAEMSSGPVAESWCYTQIKVVKFSYMWTINNFSFCREEMGEVIKSSTFSSGANDKLKWCLRVNPKGLDEESKDYLSLCLLLVSCPKSEVRAKFKFSILNAKGEETKAMESQRAYRFVQGKDWGFKKFIRRDFLLDEANGLLPDDKLTLFCEVSVVQDSVNISGQNTMNMVKVPECRLADELGGLWENSRFTDCCLCVAGQEFQAHKAILAARSPVFSAMFEHEMEESKKNRVEINDVEPEVFKEMMCFIYTGKAPNLDKMADDLLAAADKYALERLKVMCEDALCSNLSVENAAEILILADLHSADQLKTQAVDFINYHASDVLETSGWKSMVVSHPHLVAEAYRSLASAQCPFLGPPRKRLKQS [Y87C], the “effect of a mutation on the interaction” value is recorded as “with no effect”.

Variants of B1 are the subject of the next assay. Particulars: with btg1_human BTG1, P62324.
Chain of btg1_human BTG1, P62324 (P62324 whole entry): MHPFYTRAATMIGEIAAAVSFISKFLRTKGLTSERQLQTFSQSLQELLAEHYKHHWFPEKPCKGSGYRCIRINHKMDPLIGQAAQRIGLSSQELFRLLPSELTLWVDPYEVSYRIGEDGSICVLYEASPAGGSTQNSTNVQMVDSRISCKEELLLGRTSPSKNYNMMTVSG
In the case of MSRVPSPPPPAEMSSGPVAESWCYTQIKVVKFSYMWTINNFSFCREEMGEVIKSSTFSSGANDKLKWCLRVNPKGLDEESKDYLSLCLLLVSCPKSEVRAKFKFSILNAKGEETKAMESQRAYRFVQGKDWGFKKFIRRDFLLDEANGLLPDDKLTLFCEVSVVQDSVNISGQNTMNMVKVPECRLADELGGLWENSRFTDCCLCVAGQEFQAHKAILAARSPVFSAMFEHEMEESKKNRVEINDVEPEVFKEMMCFIYTGKAPNLDKMADDLLAAADKYALERLKVMCEDALCSNLSVENAAEILILADLHSADQLKTQAVDFINYHASDVLETSGWKSMVVSHPHLVAEAYRSLASAQCPFLGPPRKRLKQS [Y87C], the “effect of a mutation on the interaction” value is “with no effect”.

In another assay the parent is B1. The settings on record: with ccnd1_human CCND1, P24385.
Chain of ccnd1_human CCND1, P24385 (P24385 whole entry): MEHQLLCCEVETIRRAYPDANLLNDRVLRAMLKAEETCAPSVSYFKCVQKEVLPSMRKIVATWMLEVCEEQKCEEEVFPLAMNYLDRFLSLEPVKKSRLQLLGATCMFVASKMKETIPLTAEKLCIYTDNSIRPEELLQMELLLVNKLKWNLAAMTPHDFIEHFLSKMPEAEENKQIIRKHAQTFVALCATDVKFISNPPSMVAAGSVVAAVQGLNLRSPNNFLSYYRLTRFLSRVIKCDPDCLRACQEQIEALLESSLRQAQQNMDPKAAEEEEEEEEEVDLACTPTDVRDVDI
For MSRVPSPPPPAEMSSGPVAESWCYTQIKVVKFSYMWTINNFSFCREEMGEVIKSSTFSSGANDKLKWCLRVNPKGLDEESKDYLSLCLLLVSCPKSEVRAKFKFSILNAKGEETKAMESQRAYRFVQGKDWGFKKFIRRDFLLDEANGLLPDDKLTLFCEVSVVQDSVNISGQNTMNMVKVPECRLADELGGLWENSRFTDCCLCVAGQEFQAHKAILAARSPVFSAMFEHEMEESKKNRVEINDVEPEVFKEMMCFIYTGKAPNLDKMADDLLAAADKYALERLKVMCEDALCSNLSVENAAEILILADLHSADQLKTQAVDFINYHASDVLETSGWKSMVVSHPHLVAEAYRSLASAQCPFLGPPRKRLKQS [Y87C], the “effect of a mutation on the interaction” value was “with no effect”.

In another assay the parent is B1. Particulars: with ccnd2_human CCND2, P30279.
For the variant MSRVPSPPPPAEMSSGPVAESWCYTQIKVVKFSYMWTINNFSFCREEMGEVIKSSTFSSGANDKLKWCLRVNPKGLDEESKDYLSLCLLLVSCPKSEVRAKFKFSILNAKGEETKAMESQRAYRFVQGKDWGFKKFIRRDFLLDEANGLLPDDKLTLFCEVSVVQDSVNISGQNTMNMVKVPECRLADELGGLWENSRFTDCCLCVAGQEFQAHKAILAARSPVFSAMFEHEMEESKKNRVEINDVEPEVFKEMMCFIYTGKAPNLDKMADDLLAAADKYALERLKVMCEDALCSNLSVENAAEILILADLHSADQLKTQAVDFINYHASDVLETSGWKSMVVSHPHLVAEAYRSLASAQCPFLGPPRKRLKQS [Y87C], the “effect of a mutation on the interaction” value was “with no effect”.

Variants of B1 are the subject of the next assay. Particulars: with ccnd3_human CCND3, P30281.
Chain of ccnd3_human CCND3, P30281 (P30281 whole entry): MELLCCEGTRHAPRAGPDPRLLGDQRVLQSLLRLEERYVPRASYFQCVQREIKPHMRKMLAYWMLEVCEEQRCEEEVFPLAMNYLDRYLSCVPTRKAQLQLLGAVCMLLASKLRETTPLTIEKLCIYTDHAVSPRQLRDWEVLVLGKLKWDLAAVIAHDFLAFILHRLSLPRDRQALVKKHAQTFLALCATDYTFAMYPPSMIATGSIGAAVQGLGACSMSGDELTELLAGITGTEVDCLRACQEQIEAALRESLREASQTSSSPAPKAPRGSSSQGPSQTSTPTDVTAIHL
As to MSRVPSPPPPAEMSSGPVAESWCYTQIKVVKFSYMWTINNFSFCREEMGEVIKSSTFSSGANDKLKWCLRVNPKGLDEESKDYLSLCLLLVSCPKSEVRAKFKFSILNAKGEETKAMESQRAYRFVQGKDWGFKKFIRRDFLLDEANGLLPDDKLTLFCEVSVVQDSVNISGQNTMNMVKVPECRLADELGGLWENSRFTDCCLCVAGQEFQAHKAILAARSPVFSAMFEHEMEESKKNRVEINDVEPEVFKEMMCFIYTGKAPNLDKMADDLLAAADKYALERLKVMCEDALCSNLSVENAAEILILADLHSADQLKTQAVDFINYHASDVLETSGWKSMVVSHPHLVAEAYRSLASAQCPFLGPPRKRLKQS [Y87C], the “effect of a mutation on the interaction” value is reported as “with no effect”.

Variants of B1 are the subject of another assay. Particulars: with ccne1_human CCNE1, P24864.
Chain of ccne1_human CCNE1, P24864 (P24864 whole entry): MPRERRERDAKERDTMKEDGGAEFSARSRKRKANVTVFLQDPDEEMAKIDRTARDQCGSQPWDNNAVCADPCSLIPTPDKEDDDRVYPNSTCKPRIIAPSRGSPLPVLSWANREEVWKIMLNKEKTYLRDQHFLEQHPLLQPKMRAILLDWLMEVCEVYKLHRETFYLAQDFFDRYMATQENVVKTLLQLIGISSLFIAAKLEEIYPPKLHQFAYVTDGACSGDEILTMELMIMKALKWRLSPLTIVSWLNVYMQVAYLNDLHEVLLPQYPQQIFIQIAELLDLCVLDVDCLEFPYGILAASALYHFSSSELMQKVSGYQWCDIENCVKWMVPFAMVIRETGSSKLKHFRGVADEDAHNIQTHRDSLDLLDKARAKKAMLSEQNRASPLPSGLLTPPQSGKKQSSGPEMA
MSRVPSPPPPAEMSSGPVAESWCYTQIKVVKFSYMWTINNFSFCREEMGEVIKSSTFSSGANDKLKWCLRVNPKGLDEESKDYLSLCLLLVSCPKSEVRAKFKFSILNAKGEETKAMESQRAYRFVQGKDWGFKKFIRRDFLLDEANGLLPDDKLTLFCEVSVVQDSVNISGQNTMNMVKVPECRLADELGGLWENSRFTDCCLCVAGQEFQAHKAILAARSPVFSAMFEHEMEESKKNRVEINDVEPEVFKEMMCFIYTGKAPNLDKMADDLLAAADKYALERLKVMCEDALCSNLSVENAAEILILADLHSADQLKTQAVDFINYHASDVLETSGWKSMVVSHPHLVAEAYRSLASAQCPFLGPPRKRLKQS [Y87C]: the “effect of a mutation on the interaction” value is “with no effect”.

Variants of B1 are the subject of the next assay. Particulars: with cd44_human CD44, P16070.
With MSRVPSPPPPAEMSSGPVAESWCYTQIKVVKFSYMWTINNFSFCREEMGEVIKSSTFSSGANDKLKWCLRVNPKGLDEESKDYLSLCLLLVSCPKSEVRAKFKFSILNAKGEETKAMESQRAYRFVQGKDWGFKKFIRRDFLLDEANGLLPDDKLTLFCEVSVVQDSVNISGQNTMNMVKVPECRLADELGGLWENSRFTDCCLCVAGQEFQAHKAILAARSPVFSAMFEHEMEESKKNRVEINDVEPEVFKEMMCFIYTGKAPNLDKMADDLLAAADKYALERLKVMCEDALCSNLSVENAAEILILADLHSADQLKTQAVDFINYHASDVLETSGWKSMVVSHPHLVAEAYRSLASAQCPFLGPPRKRLKQS [Y87C], the “effect of a mutation on the interaction” value was “with no effect”.

The variants in a further assay derive from B1. The settings on record: with cd79b_human CD79B.
MSRVPSPPPPAEMSSGPVAESWCYTQIKVVKFSYMWTINNFSFCREEMGEVIKSSTFSSGANDKLKWCLRVNPKGLDEESKDYLSLCLLLVSCPKSEVRAKFKFSILNAKGEETKAMESQRAYRFVQGKDWGFKKFIRRDFLLDEANGLLPDDKLTLFCEVSVVQDSVNISGQNTMNMVKVPECRLADELGGLWENSRFTDCCLCVAGQEFQAHKAILAARSPVFSAMFEHEMEESKKNRVEINDVEPEVFKEMMCFIYTGKAPNLDKMADDLLAAADKYALERLKVMCEDALCSNLSVENAAEILILADLHSADQLKTQAVDFINYHASDVLETSGWKSMVVSHPHLVAEAYRSLASAQCPFLGPPRKRLKQS [Y87C]: the “effect of a mutation on the interaction” value was “with no effect”.
